# Assay results: article PMC11969024 (2025)
# B1: peptide HD2 (from tick evasin EVA4) / CCL17 (biotinylated, synthetic) (parent complex)
# chain 1: EEDDYTAYAPLTCYFT
# chain 2: ARGTNVGRECCLEYFKGAIPLRKLKTWYQTSEDCSRDAIVFVTVQGRAICSDPNNKRVKNAVKYLQSLERS
# Variants of: B1
row,Variant,enrichment
1,chain 1 A9G,-7.21 log2 (difference from the parental peptide)
2,chain 1 A7F,-3.04 log2 (difference from the parental peptide)
3,chain 1 C13M,-2.5 log2 (difference from the parental peptide)
4,chain 1 L11W,-0.813 log2 (difference from the parental peptide)
5,chain 1 P10W,-5.95 log2 (difference from the parental peptide)
6,chain 1 T6Y,0.0769 log2 (difference from the parental peptide)
7,chain 1 L11K,2.96 log2 (difference from the parental peptide)
8,chain 1 F15Y,2.54 log2 (difference from the parental peptide)
9,chain 1 C13T,-5.42 log2 (difference from the parental peptide)
10,chain 1 D4S,-4.05 log2 (difference from the parental peptide)
11,chain 1 Y8C,-9.78 log2 (difference from the parental peptide)
12,chain 1 A9Y,-8.18 log2 (difference from the parental peptide)
13,chain 1 E1A,0.0959 log2 (difference from the parental peptide)
14,chain 1 A7E,-0.527 log2 (difference from the parental peptide)
15,chain 1 Y5I,-6.15 log2 (difference from the parental peptide)
16,chain 1 E2H,-1.27 log2 (difference from the parental peptide)
17,chain 1 F15L,0.236 log2 (difference from the parental peptide)
18,chain 1 Y8V,-8.87 log2 (difference from the parental peptide)
19,chain 1 Y8L,-8.14 log2 (difference from the parental peptide)
20,chain 1 A9W,-4.5 log2 (difference from the parental peptide)
21,chain 1 D4M,-3.6 log2 (difference from the parental peptide)
22,chain 1 F15T,0.347 log2 (difference from the parental peptide)
23,chain 1 F15H,0.105 log2 (difference from the parental peptide)
24,chain 1 T12G,-10.4 log2 (difference from the parental peptide)
25,chain 1 T12Y,-0.855 log2 (difference from the parental peptide)

row,Variant,enrichment
1,chain 1 T16V,-0.108 log2 (difference from the parental peptide)
2,chain 1 E2M,-1.82 log2 (difference from the parental peptide)
3,chain 1 Y5W,0.266 log2 (difference from the parental peptide)
4,chain 1 E2N,-1.61 log2 (difference from the parental peptide)
5,chain 1 T16P,1.33 log2 (difference from the parental peptide)
6,chain 1 T12M,1.75 log2 (difference from the parental peptide)
7,chain 1 A7G,2.15 log2 (difference from the parental peptide)
8,chain 1 T6L,-1.57 log2 (difference from the parental peptide)
9,chain 1 E1V,-0.847 log2 (difference from the parental peptide)
10,chain 1 A7D,0.474 log2 (difference from the parental peptide)
11,chain 1 T6R,0.942 log2 (difference from the parental peptide)
12,chain 1 D3T,-2.29 log2 (difference from the parental peptide)
13,chain 1 L11D,-9.19 log2 (difference from the parental peptide)
14,chain 1 F15P,1.23 log2 (difference from the parental peptide)
15,chain 1 Y5G,-7.21 log2 (difference from the parental peptide)
16,chain 1 P10G,-9.32 log2 (difference from the parental peptide)
17,chain 1 C13Q,-6.89 log2 (difference from the parental peptide)
18,chain 1 T12D,-7.76 log2 (difference from the parental peptide)
19,chain 1 E1M,0.0225 log2 (difference from the parental peptide)
20,chain 1 Y5S,-7.62 log2 (difference from the parental peptide)
21,chain 1 D4I,-4.19 log2 (difference from the parental peptide)
22,chain 1 F15N,-1.55 log2 (difference from the parental peptide)
23,chain 1 F15K,0.71 log2 (difference from the parental peptide)
24,chain 1 D4N,-3.02 log2 (difference from the parental peptide)
25,chain 1 D3F,-5.06 log2 (difference from the parental peptide)

row,Variant,enrichment
1,chain 1 L11N,-6.23 log2 (difference from the parental peptide)
2,chain 1 D3L,-4.35 log2 (difference from the parental peptide)
3,chain 1 Y14T,-3.79 log2 (difference from the parental peptide)
4,chain 1 P10E,-6.42 log2 (difference from the parental peptide)
5,chain 1 L11E,-4.46 log2 (difference from the parental peptide)
6,chain 1 E2T,-2.14 log2 (difference from the parental peptide)
7,chain 1 T16M,0.118 log2 (difference from the parental peptide)
8,chain 1 P10A,-8.82 log2 (difference from the parental peptide)
9,chain 1 T16R,-1.43 log2 (difference from the parental peptide)
10,chain 1 E2S,-1.29 log2 (difference from the parental peptide)
11,chain 1 F15Q,-0.329 log2 (difference from the parental peptide)
12,chain 1 E2W,-2.45 log2 (difference from the parental peptide)
13,chain 1 E1N,0.681 log2 (difference from the parental peptide)
14,chain 1 F15M,0.0931 log2 (difference from the parental peptide)
15,chain 1 D3E,0.618 log2 (difference from the parental peptide)
16,chain 1 A9V,-9.17 log2 (difference from the parental peptide)
17,chain 1 Y5M,-3.16 log2 (difference from the parental peptide)
18,chain 1 Y5F,-2.8 log2 (difference from the parental peptide)
19,chain 1 F15V,1.08 log2 (difference from the parental peptide)
20,chain 1 D4F,-6.96 log2 (difference from the parental peptide)
21,chain 1 A7N,2.1 log2 (difference from the parental peptide)
22,chain 1 C13F,-5.92 log2 (difference from the parental peptide)
23,chain 1 T12N,-3.22 log2 (difference from the parental peptide)
24,chain 1 Y14C,-7.42 log2 (difference from the parental peptide)
25,chain 1 D3A,-2.38 log2 (difference from the parental peptide)

row,Variant,enrichment
1,chain 1 T12I,0.0487 log2 (difference from the parental peptide)
2,chain 1 D4K,-4.98 log2 (difference from the parental peptide)
3,chain 1 Y8H,-5.35 log2 (difference from the parental peptide)
4,chain 1 Y8W,-3.5 log2 (difference from the parental peptide)
5,chain 1 D3H,-2.9 log2 (difference from the parental peptide)
6,chain 1 T16C,-5.46 log2 (difference from the parental peptide)
7,chain 1 P10D,-8.51 log2 (difference from the parental peptide)
8,chain 1 E1I,-0.523 log2 (difference from the parental peptide)
9,chain 1 D3Y,-3.2 log2 (difference from the parental peptide)
10,chain 1 C13V,-2.69 log2 (difference from the parental peptide)
11,chain 1 T16G,0.943 log2 (difference from the parental peptide)
12,chain 1 E2D,1.45 log2 (difference from the parental peptide)
13,chain 1 A7S,0.977 log2 (difference from the parental peptide)
14,chain 1 L11A,-1.12 log2 (difference from the parental peptide)
15,chain 1 T16A,1.13 log2 (difference from the parental peptide)
16,chain 1 E1L,-0.975 log2 (difference from the parental peptide)
17,chain 1 T12H,-2.06 log2 (difference from the parental peptide)
18,chain 1 T12Q,-1.6 log2 (difference from the parental peptide)
19,chain 1 F15G,-3.49 log2 (difference from the parental peptide)
20,chain 1 T16S,0.663 log2 (difference from the parental peptide)
21,chain 1 Y8F,0.399 log2 (difference from the parental peptide)
22,chain 1 D4V,-7.15 log2 (difference from the parental peptide)
23,chain 1 Y5P,-4.51 log2 (difference from the parental peptide)
24,chain 1 D4Q,-3.42 log2 (difference from the parental peptide)
25,chain 1 L11S,-0.205 log2 (difference from the parental peptide)

row,Variant,enrichment
1,chain 1 D3S,-2.79 log2 (difference from the parental peptide)
2,chain 1 D4Y,-5.69 log2 (difference from the parental peptide)
3,chain 1 T6M,-0.648 log2 (difference from the parental peptide)
4,chain 1 P10L,-8.28 log2 (difference from the parental peptide)
5,chain 1 E1G,0.607 log2 (difference from the parental peptide)
6,chain 1 E2C,-10.1 log2 (difference from the parental peptide)
7,chain 1 T12V,-0.896 log2 (difference from the parental peptide)
8,chain 1 D3Q,-1.63 log2 (difference from the parental peptide)
9,chain 1 T16I,-0.321 log2 (difference from the parental peptide)
10,chain 1 Y5A,-5.17 log2 (difference from the parental peptide)
11,chain 1 L11H,2.36 log2 (difference from the parental peptide)
12,chain 1 T16Q,1.17 log2 (difference from the parental peptide)
13,chain 1 L11R,3.2 log2 (difference from the parental peptide)
14,chain 1 P10T,-7.97 log2 (difference from the parental peptide)
15,chain 1 A7Y,-1.58 log2 (difference from the parental peptide)
16,chain 1 A9Q,-1.77 log2 (difference from the parental peptide)
17,chain 1 P10Q,-4.91 log2 (difference from the parental peptide)
18,chain 1 D4W,-7.69 log2 (difference from the parental peptide)
19,chain 1 Y8S,-8.85 log2 (difference from the parental peptide)
20,chain 1 A7V,-4.48 log2 (difference from the parental peptide)
21,chain 1 T16E,1.12 log2 (difference from the parental peptide)
22,chain 1 E1W,-2.36 log2 (difference from the parental peptide)
23,chain 1 T16N,0.157 log2 (difference from the parental peptide)
24,chain 1 A9N,-4.52 log2 (difference from the parental peptide)
25,chain 1 D3M,-4.48 log2 (difference from the parental peptide)

row,Variant,enrichment
1,chain 1 E1Y,-0.248 log2 (difference from the parental peptide)
2,chain 1 E1Q,0.156 log2 (difference from the parental peptide)
3,chain 1 Y5H,-5.84 log2 (difference from the parental peptide)
4,chain 1 T12C,-3.34 log2 (difference from the parental peptide)
5,chain 1 T16Y,-0.84 log2 (difference from the parental peptide)
6,chain 1 A7H,1.03 log2 (difference from the parental peptide)
7,chain 1 T6K,0.208 log2 (difference from the parental peptide)
8,chain 1 T16W,-1.23 log2 (difference from the parental peptide)
9,chain 1 A7T,-1.52 log2 (difference from the parental peptide)
10,chain 1 D4E,-0.373 log2 (difference from the parental peptide)
11,chain 1 L11F,-0.993 log2 (difference from the parental peptide)
12,chain 1 D3W,-4.02 log2 (difference from the parental peptide)
13,chain 1 A9T,-4.51 log2 (difference from the parental peptide)
14,chain 1 E1K,-0.679 log2 (difference from the parental peptide)
15,chain 1 A9S,-0.697 log2 (difference from the parental peptide)
16,chain 1 C13I,-2.82 log2 (difference from the parental peptide)
17,chain 1 D4T,-5.39 log2 (difference from the parental peptide)
18,chain 1 T16F,-0.625 log2 (difference from the parental peptide)
19,chain 1 P10F,-7.51 log2 (difference from the parental peptide)
20,chain 1 D3R,-5.97 log2 (difference from the parental peptide)
21,chain 1 Y14A,-6.44 log2 (difference from the parental peptide)
22,chain 1 A9L,-7.01 log2 (difference from the parental peptide)
23,chain 1 T6G,2.24 log2 (difference from the parental peptide)
24,chain 1 Y14P,-7.37 log2 (difference from the parental peptide)
25,chain 1 T6S,2.6 log2 (difference from the parental peptide)
